Biological target: T1, full-length human tau (hTau40) (human, UniProt P10636-8 1-441)
T1 construct: plasmid PT7CHT40; The same construct was used as monomer (no inducer) and as filaments or oligomers induced with 75 uM arachidonic acid; No tag removal is described; also called hTau40^m (incubated without inducer, monomeric); hTau40^ARA (incubated with arachidonic acid, filaments and oligomers); source: E. coli BL21, purified (boiled lysate, HIS-select Nickel resin)
Experiment: ELISA; nondenaturing sandwich ELISA; Tau13 capture antibody, anti-EFhd2 detection antibody; 2 uM hEFhd2 and 2 uM hTau40 co-incubated overnight at room temperature without arachidonic acid (hTau40^m/hEFhd2), then diluted in 1X PBS
Details: both partners purified

T1 sequence (P10636 other isoform, or with tags, fused parts or gaps): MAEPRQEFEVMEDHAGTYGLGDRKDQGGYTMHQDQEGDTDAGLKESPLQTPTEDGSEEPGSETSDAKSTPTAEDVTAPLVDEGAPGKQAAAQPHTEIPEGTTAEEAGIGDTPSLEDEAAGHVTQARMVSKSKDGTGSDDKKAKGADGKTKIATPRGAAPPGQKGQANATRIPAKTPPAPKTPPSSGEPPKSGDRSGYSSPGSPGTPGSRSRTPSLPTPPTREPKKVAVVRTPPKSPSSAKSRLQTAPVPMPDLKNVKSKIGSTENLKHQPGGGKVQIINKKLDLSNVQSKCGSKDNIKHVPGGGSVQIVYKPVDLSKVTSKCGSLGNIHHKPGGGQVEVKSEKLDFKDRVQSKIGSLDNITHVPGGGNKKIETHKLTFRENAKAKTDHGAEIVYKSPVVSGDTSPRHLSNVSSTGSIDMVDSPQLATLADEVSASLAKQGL

B1: recombinant human EFhd2 (natural protein, UniProt Q96C19 1-240, looked up)
chain: MATDELATKLSRRLQMEGEGGGETPEQPGLNGAAAAAAGAPDEAAEALGSADCELSAKLLRRADLNQGIGEPQSPSRRVFNPYTEFKEFSRKQIKDMEKMFKQYDAGRDGFIDLMELKLMMEKLGAPQTHLGLKNMIKEVDEDFDSKLSFREFLLIFRKAAAGELQEDSGLCVLARLSEIDVSSEGVKGAKSFFEAKVQAINVSSRFEEEIKAEQEERKKQAEEMKQRKAAFKELQSTFK
notes: wild type human EFhd2; No tag removal is described; also called hEFhd2; EF-hand domain 2 protein; source: E. coli BL21 (DE3), purified (HIS-select Nickel resin)
binding result: binds
